Laboratory results as given in the supplement of paper PMC7877785.
± gives the uncertainty stated by the source.

Test: self-splicing fitness, log relative to wild type (ln ratio); higher = more splicing; Tetrahymena group I intron in knt gene, E. coli kanamycin selection, DiMSum; sequences stand for … in CUCUCU…GGAGGGAAAAGUUAUCAGGCAUGCACCUGGUAGCUAGUCUUUAAACCAAUAGAUUGCAUCGGUUUAAAAGGCAAGACCGUCAAAUUGCGGGAAAGGGGUCAACAGCCGUUCAGUACCAAGUCUCAGGGGAAACUUUGAGAUGGCCUUGCAAAGGGUAUGGUAAUAAGCUGACGGACAUGGUCCUAACCACGCAGCCAAGUCCUAAGUCAACAGAUCUUCUGUUGAUAUGGAUGCAGUUCACAGACUAAAUGUCGGUCGGGGAAGAUGUAUUCUUCUCAUAAGAUAUAGUCGGACCUCUCCUUAAUGGGAGCUAGCGGAUGAAGUGAUGCAACACUGGAGCCGCUGGGAACUAAUUUGUAUGCGAAAGUAUAUUGAUUAGUUUUGGAGUACUCGUGGUCG
Summary of the method: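 DiMSum derived fitness as the error-weighted combination of fold changes across replicates, kanamycin versus no kanamycin, normalised to wild type. E. coli BL21(DE3) held the library, which randomised all eight P1ex-region intron nucleotides within the knt kanamycin-resistance gene on pET-22b(+). Six replicate transformations grew overnight at 37°C or 30°C on LB agar with or without 25 μg/mL kanamycin, also containing 100 μg/mL carbenicillin, 50 μM IPTG and 0.2% rhamnose, and pooled colonies were amplicon-sequenced on an Illumina HiSeq 2500.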

Row | Sequence | self-splicing fitness (ln) (30 °C) | self-splicing fitness (ln) (37 °C)
1 | AUAGAGCAAUAUUACGCUCC | -0.896 ± 0.37 | -1.91 ± 0.41
2 | AUAGAGCAAUAUUACGGACA | -2.38 ± 0.27 | -0.896 ± 0.33
3 | AUAGAGCAAUAUUACGGAGG | -3.24 ± 0.22 | -1.8 ± 0.23
4 | AUAGAGCAAUAUUACGGAUA | -2.83 ± 0.31 | -1.8 ± 0.39
5 | AUAGAGCAAUAUUACGGAUG | -1.43 ± 0.12 | -2.91 ± 0.31
6 | AUAGAGCAAUAUUACGGCUA | 0.361 ± 0.077 | 0.0589 ± 0.098
7 | AUAGAGCAAUAUUACGGGCA | -2.19 ± 0.097 | -1.28 ± 0.11
8 | AUAGAGCAAUAUUACGGGCU | -4.11 ± 0.27 | -2.51 ± 0.29
9 | AUAGAGCAAUAUUACGGGGG | -3.2 ± 0.27 | -2.72 ± 0.4
10 | AUAGAGCAAUAUUACGGUAU | -0.341 ± 0.075 | -0.0895 ± 0.11
11 | AUAGAGCAAUAUUACGGUGU | -1.24 ± 0.1 | -0.567 ± 0.15
12 | AUAGAGCAAUAUUACGGUUC | -3.21 ± 0.24 | -1.29 ± 0.22
13 | AUAGAGCAAUAUUACGUAGU | -1.69 ± 0.12 | -0.153 ± 0.15
14 | AUAGAGCAAUAUUACGUAUG | -3.22 ± 0.17 | -0.602 ± 0.14
15 | AUAGAGCAAUAUUACGUGCU | -1.24 ± 0.25 | 
16 | AUAGAGCAAUAUUACGUGGA | -3.98 ± 0.27 | -3.39 ± 0.29
17 | AUAGAGCAAUAUUACGUGGC | -3.18 ± 0.4 | -2.7 ± 0.26
18 | AUAGAGCAAUAUUACGUGUG | -1.61 ± 0.1 | -2.39 ± 0.2
19 | AUAGAGCAAUAUUACGUUCA | 0.258 ± 0.11 | -0.633 ± 0.12
20 | AUAGAGCAAUAUUACGUUUC | -3.32 ± 0.22 | -1.46 ± 0.24
21 | AUAUAGCAAUAUUACGACCU | -0.348 ± 0.14 | 0.267 ± 0.15
22 | AUAUAGCAAUAUUACGACGU | 0.51 ± 0.13 | 0.433 ± 0.17
23 | AUAUAGCAAUAUUACGAGAC | -3.02 ± 0.39 | -1.61 ± 0.49
24 | AUAUAGCAAUAUUACGAGUU | -3.19 ± 0.18 | -1.46 ± 0.15
25 | AUAUAGCAAUAUUACGAUGG | -3.07 ± 0.31 | -0.944 ± 0.26
26 | AUAUAGCAAUAUUACGCAGA | -2.82 ± 0.31 | -1.42 ± 0.21

Row | Sequence | self-splicing fitness (ln) (30 °C) | self-splicing fitness (ln) (37 °C)
27 | AUAUAGCAAUAUUACGCCCU | -0.155 ± 0.15 | 0.32 ± 0.18
28 | AUAUAGCAAUAUUACGCCUU | -1.01 ± 0.12 | -0.431 ± 0.12
29 | AUAUAGCAAUAUUACGCGUA | -1.11 ± 0.19 | -0.256 ± 0.13
30 | AUAUAGCAAUAUUACGCGUC | -3.3 ± 0.26 | -2.26 ± 0.28
31 | AUAUAGCAAUAUUACGCUCA | -0.563 ± 0.18 | 0.319 ± 0.22
32 | AUAUAGCAAUAUUACGCUCG | -0.992 ± 0.12 | 0.0571 ± 0.18
33 | AUAUAGCAAUAUUACGCUUA | -1.53 ± 0.16 | -0.0426 ± 0.15
34 | AUAUAGCAAUAUUACGGACU | -1.04 ± 0.11 | -0.14 ± 0.16
35 | AUAUAGCAAUAUUACGGCAU | -0.195 ± 0.089 | 0.155 ± 0.12
36 | AUAUAGCAAUAUUACGGGAU | -2.27 ± 0.16 | -0.966 ± 0.16
37 | AUAUAGCAAUAUUACGGGUC | -4.55 ± 0.46 | -2.17 ± 0.25
38 | AUAUAGCAAUAUUACGGUAA | -1.94 ± 0.15 | -0.869 ± 0.13
39 | AUAUAGCAAUAUUACGGUGC | -2.77 ± 0.38 | -1.94 ± 0.27
40 | AUAUAGCAAUAUUACGGUUU | -1.31 ± 0.091 | -0.854 ± 0.11
41 | AUAUAGCAAUAUUACGUAUU | -2.94 ± 0.22 | -1.63 ± 0.21
42 | AUAUAGCAAUAUUACGUGGA | -3.57 ± 0.27 | -3.04 ± 0.26
43 | AUAUAGCAAUAUUACGUGGG | -3.53 ± 0.28 | -3.28 ± 0.33
44 | AUAUAGCAAUAUUACGUUCC | -1.69 ± 0.29 | 
45 | AUCAAGCAAUAUUACGACCA | -0.886 ± 0.13 | 0.0541 ± 0.14
46 | AUCAAGCAAUAUUACGACGU | 0.145 ± 0.071 | -0.14 ± 0.067
47 | AUCAAGCAAUAUUACGACUU | -0.501 ± 0.049 | 0.297 ± 0.064
48 | AUCAAGCAAUAUUACGAGUU | -1.57 ± 0.081 | -1.42 ± 0.097
49 | AUCAAGCAAUAUUACGAUGA | -0.483 ± 0.076 | -0.19 ± 0.086
50 | AUCAAGCAAUAUUACGCACA | -0.256 ± 0.066 | -0.0877 ± 0.076
51 | AUCAAGCAAUAUUACGCACG | -2.1 ± 0.15 | -2.28 ± 0.18
52 | AUCAAGCAAUAUUACGCAUG | -3.06 ± 0.12 | -1.56 ± 0.098

Row | Sequence | self-splicing fitness (ln) (30 °C) | self-splicing fitness (ln) (37 °C)
53 | AUCAAGCAAUAUUACGCCAU | -2.88 ± 0.19 | -1.44 ± 0.13
54 | AUCAAGCAAUAUUACGCCUC | -2.77 ± 0.23 | -1.6 ± 0.21
55 | AUCAAGCAAUAUUACGCGUU | -2.66 ± 0.089 | -0.858 ± 0.095
56 | AUCAAGCAAUAUUACGCUAA | -2.95 ± 0.17 | -1.1 ± 0.14
57 | AUCAAGCAAUAUUACGCUGU | -2.62 ± 0.097 | -1.1 ± 0.084
58 | AUCAAGCAAUAUUACGGAAC | -4.1 ± 0.15 | -2.3 ± 0.12
59 | AUCAAGCAAUAUUACGGACA | -0.967 ± 0.075 | -0.478 ± 0.093
60 | AUCAAGCAAUAUUACGGAGA | -2.57 ± 0.16 | -2.81 ± 0.24
61 | AUCAAGCAAUAUUACGGCUG | -0.736 ± 0.071 | -0.0189 ± 0.11
62 | AUCAAGCAAUAUUACGGGAG | -1.16 ± 0.097 | -0.571 ± 0.099
63 | AUCAAGCAAUAUUACGGGGU | -3.94 ± 0.2 | -2.48 ± 0.15
64 | AUCAAGCAAUAUUACGGUUA | -1.06 ± 0.092 | -0.342 ± 0.095
65 | AUCAAGCAAUAUUACGUCGA | -1.36 ± 0.068 | -0.157 ± 0.068
66 | AUCAAGCAAUAUUACGUGGU | -2.83 ± 0.2 | -3.11 ± 0.21
67 | AUCCAGCAAUAUUACGAAGA | -1.56 ± 0.18 | -1.64 ± 0.16
68 | AUCCAGCAAUAUUACGAAGG | -3.07 ± 0.2 | -2.8 ± 0.23
69 | AUCCAGCAAUAUUACGACAC | -0.468 ± 0.11 | -0.488 ± 0.16
70 | AUCCAGCAAUAUUACGACGA | -0.497 ± 0.14 | 0.0611 ± 0.12
71 | AUCCAGCAAUAUUACGACGU | -0.176 ± 0.057 | 0.696 ± 0.081
72 | AUCCAGCAAUAUUACGACUA | -0.459 ± 0.097 | -0.0254 ± 0.084
73 | AUCCAGCAAUAUUACGAGUA | -2.01 ± 0.18 | -1.07 ± 0.12
74 | AUCCAGCAAUAUUACGAGUG | -1.66 ± 0.095 | -1.77 ± 0.11
75 | AUCCAGCAAUAUUACGAUAU | -0.123 ± 0.075 | -0.114 ± 0.071
76 | AUCCAGCAAUAUUACGAUCA | -1.43 ± 0.12 | -1.09 ± 0.14
